# Source: PMC13376213 (2026)
# * marks the point of attachment. FITC = O=C1OC2(c3ccc(O)cc3Oc3cc(O)ccc32)c2ccc(NC(=S)*)cc21
# T1: USP33 zf-UBP domain, tag cleaved (for FP) (human, UniProt Q8TEY7 1-942)
# T1 chain: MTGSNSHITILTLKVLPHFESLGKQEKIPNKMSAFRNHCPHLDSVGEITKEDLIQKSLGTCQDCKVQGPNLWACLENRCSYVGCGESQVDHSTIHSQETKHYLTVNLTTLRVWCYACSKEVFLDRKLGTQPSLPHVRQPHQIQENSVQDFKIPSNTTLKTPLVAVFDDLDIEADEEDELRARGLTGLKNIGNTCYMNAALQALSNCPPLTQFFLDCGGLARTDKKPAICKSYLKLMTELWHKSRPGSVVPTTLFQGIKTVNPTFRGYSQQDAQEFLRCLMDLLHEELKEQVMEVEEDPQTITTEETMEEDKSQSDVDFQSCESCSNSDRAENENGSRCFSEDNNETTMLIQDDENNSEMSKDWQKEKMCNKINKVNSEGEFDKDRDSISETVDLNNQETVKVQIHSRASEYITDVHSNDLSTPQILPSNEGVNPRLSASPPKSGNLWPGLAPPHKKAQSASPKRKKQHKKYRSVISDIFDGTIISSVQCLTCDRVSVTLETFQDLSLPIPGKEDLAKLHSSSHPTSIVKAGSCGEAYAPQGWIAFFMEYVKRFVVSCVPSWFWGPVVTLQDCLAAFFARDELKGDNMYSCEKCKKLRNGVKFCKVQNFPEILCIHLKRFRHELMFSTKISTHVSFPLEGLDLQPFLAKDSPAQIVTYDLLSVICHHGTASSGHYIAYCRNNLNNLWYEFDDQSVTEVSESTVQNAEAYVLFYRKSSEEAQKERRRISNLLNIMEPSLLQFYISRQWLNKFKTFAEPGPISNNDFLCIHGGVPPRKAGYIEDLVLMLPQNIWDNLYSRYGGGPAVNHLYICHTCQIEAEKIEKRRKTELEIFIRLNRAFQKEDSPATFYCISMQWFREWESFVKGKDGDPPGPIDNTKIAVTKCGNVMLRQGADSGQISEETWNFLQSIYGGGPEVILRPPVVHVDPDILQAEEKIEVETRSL
# T2: USP20 DUSP2 domain N805A (for FP) (human)
# T2 chain: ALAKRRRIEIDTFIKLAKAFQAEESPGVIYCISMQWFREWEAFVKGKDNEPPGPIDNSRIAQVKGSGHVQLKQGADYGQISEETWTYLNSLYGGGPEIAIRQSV
# T3: USP20 DUSP2 domain K833E/K835E (for FP) (human)
# T3 chain: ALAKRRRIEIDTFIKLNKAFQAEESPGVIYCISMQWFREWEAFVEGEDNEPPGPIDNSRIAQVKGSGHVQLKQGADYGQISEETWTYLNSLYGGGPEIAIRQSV
# T4: USP33 DUSP2 domain, tag cleaved (for FP) (human, UniProt Q8TEY7 1-942)
# T4 chain: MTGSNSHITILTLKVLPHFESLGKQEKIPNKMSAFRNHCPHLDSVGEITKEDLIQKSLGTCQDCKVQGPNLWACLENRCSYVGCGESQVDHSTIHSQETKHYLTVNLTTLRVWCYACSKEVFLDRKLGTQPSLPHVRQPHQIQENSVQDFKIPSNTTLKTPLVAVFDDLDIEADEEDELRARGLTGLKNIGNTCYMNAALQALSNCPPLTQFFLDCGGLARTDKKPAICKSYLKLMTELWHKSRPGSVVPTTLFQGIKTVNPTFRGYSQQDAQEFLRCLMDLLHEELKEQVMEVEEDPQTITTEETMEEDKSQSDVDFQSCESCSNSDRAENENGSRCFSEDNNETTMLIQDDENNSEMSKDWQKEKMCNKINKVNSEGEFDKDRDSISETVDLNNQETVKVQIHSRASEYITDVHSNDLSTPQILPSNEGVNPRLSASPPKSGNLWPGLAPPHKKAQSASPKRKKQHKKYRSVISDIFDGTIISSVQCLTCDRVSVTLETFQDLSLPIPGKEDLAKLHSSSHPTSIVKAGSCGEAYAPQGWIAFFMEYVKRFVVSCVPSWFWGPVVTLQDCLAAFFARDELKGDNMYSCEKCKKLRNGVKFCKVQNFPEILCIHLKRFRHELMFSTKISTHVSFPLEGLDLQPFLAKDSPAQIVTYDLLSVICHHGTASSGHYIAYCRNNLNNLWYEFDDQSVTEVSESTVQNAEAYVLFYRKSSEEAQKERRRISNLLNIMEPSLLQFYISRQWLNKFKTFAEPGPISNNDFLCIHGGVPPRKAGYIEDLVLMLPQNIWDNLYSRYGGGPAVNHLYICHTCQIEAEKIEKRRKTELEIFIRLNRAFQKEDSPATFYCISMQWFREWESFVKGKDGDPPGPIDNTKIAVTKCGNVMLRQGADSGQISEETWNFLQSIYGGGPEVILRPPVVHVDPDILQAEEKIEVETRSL
# T5: USP22 zf-UBP (Homo sapiens, UniProt Q9UPT9)
# T5 chain: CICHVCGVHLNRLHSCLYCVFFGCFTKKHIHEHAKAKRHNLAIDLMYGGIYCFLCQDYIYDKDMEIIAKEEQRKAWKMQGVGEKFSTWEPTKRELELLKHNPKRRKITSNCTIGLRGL
# Experiments:
# [1] = molecular target: USP20 zf-UBP domain, tag cleaved (for FP) (human); assay: FP
# [2] = molecular target: T1, USP33 zf-UBP domain, tag cleaved (for …); assay: FP
# [3] = molecular target: T2, USP20 DUSP2 domain N805A (for FP); assay: FP
# [4] = molecular target: USP20 DUSP2 domain, tag cleaved (for FP) (human); assay: FP
# [5] = molecular target: T3, USP20 DUSP2 domain K833E/K835E (for FP); assay: FP
# [6] = molecular target: T4, USP33 DUSP2 domain, tag cleaved (for FP); assay: FP
# USP22 zf-UBP = molecular target: T5, USP22 zf-UBP; assay: fluorescence polarization (direct for FITC probes, competitive otherwise)
# Chain of USP20 zf-UBP domain, tag cleaved (for FP) (human) (chain, as listed by the source): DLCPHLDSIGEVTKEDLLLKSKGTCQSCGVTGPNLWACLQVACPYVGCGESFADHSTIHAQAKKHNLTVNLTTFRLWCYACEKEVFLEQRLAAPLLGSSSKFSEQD
binder,measurement,setting,value
Ac-LQPSSKASLESTSDL-NH2 [CEP192 2073-2087],Kd,[1],37 µM
same,Kd,[2],14 µM
Ac-TNSSGKMALNSPQPG-NH2 [IRAG1 302-316],Kd,[1],9 µM
same,Kd,[2],8 µM
{FITC}-SDDDLAWNIAPQGLQ-NH2 [FITC-GPR137B 348-362],Kd,[3],> 130 µM
same,Kd,[4],5 µM
same,Kd,[5],> 290 µM
Ac-QLEEELFQLRQGPAG-NH2 [CCDC88B_(947-961) peptide],Kd,[4],22 µM
same,Kd,[6],40 µM
Ac-PYIPMDGEDFQLSPICPE-NH2 [HIF2A peptide 531-548],Kd,[4],> 200 µM
same,Kd,[6],> 1000 µM
Ac-PFQPGRMALESQSPG-NH2 [USP19 874-888],Kd,[2],41 µM
Ac-PYIPMDKDFQLRSFDQLS-NH2 [HIF1A 564-581 D570K],Kd,[4],19 µM
Ac-DVVDDFQLQHRHGPG-NH2 [MFSD2B_(395-409) peptide],Kd,[4],45 µM
same,Kd,[6],0.8 µM
Ac-SDDDLAWNIAPQGLQ-NH2 [GPR137B_(348-362) peptide],Kd,[4],10 µM
same,Kd,[6],> 200 µM
Ac-PYIPMDDDFQARSFDQLS-NH2 [HIF1A 564-581 L574A],Kd,[4],89 µM
LPSPEVMLGQSWNLWVE (FITC label on probe peptides (FITC- prefix)) [ATXN7],Kd,USP22 zf-UBP,58.4 µM
VPSLDDFAGQSWSSWVE (FITC label on probe peptides (FITC- prefix)) [ATXN7L2_18-34],Kd,USP22 zf-UBP,19.4 µM
Ac-PYIPMDDDFQLRSFDQLS-NH2 [HIF1A 564-581],Kd,[4],19 µM
Ac-PYIPMDDKFQLRSFDQLS-NH2 [HIF1A 564-581 D571K],Kd,[4],85 µM
Ac-EKVKRRLDLDID-NH2 [CCP110_(582-593) peptide],Kd,[1],> 500 µM
same,Kd,[2],> 250 µM
